Reference: patent publication US20260250420A1 (SICHUAN KELUN BIOTECH BIOPHARMACEUTICAL, published 2026)

Target: T1, mouse PTK7 protein (extracellular sequence of mouse PTK7 with C-terminal 6×His tag) (mouse, UniProt Q8BKG3 23-696)
T1 construct: extracellular domain; Expressed transiently in HEK293 cells
T1 sequence: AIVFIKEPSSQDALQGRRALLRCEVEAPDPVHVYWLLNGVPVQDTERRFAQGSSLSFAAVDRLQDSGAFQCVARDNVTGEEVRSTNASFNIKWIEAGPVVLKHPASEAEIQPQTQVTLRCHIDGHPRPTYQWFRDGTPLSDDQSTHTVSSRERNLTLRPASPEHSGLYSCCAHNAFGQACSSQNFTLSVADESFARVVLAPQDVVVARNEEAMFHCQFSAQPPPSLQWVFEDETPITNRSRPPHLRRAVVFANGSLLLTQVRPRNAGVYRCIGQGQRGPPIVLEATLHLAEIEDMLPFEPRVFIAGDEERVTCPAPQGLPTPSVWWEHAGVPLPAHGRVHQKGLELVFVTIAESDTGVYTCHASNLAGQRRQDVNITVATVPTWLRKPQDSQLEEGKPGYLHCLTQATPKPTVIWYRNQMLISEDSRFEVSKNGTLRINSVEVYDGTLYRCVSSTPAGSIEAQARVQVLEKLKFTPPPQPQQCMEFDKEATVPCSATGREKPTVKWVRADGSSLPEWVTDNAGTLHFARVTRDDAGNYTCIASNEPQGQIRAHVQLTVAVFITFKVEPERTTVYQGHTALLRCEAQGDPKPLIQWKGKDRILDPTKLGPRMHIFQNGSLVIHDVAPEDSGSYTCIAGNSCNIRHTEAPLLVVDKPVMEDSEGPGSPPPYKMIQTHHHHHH
Test: ELISA, coated mouse PTK7 protein
Procedure: Original data was imported into software for nonlinear curve fitting, and EC₅₀ of binding of each antibody to human PTK7 and monkey PTK7 was calculated, respectively. As shown in Table 1 and FIGS. 1A-1B, the screened antibodies could be bound to the human and monkey PTK7 proteins with affinity higher than that of the control antibody Hu24.
ELISA and ForteBio were adopted to detect binding of the anti-human PTK7 chimeric and humanized antibodies to the monkey, mouse and rat PTK7 proteins.

B1: 64A10HZ (anti-human PTK7 humanized antibody) (antibody, human IgG1, kappa, V domains shown)
VH: QVQLQESGPGLVKPSETLSLTCTVSGFSLTSYGVYWVRQPPGKGPEWLGVIWTSGNTNYNPSLKSRLTISKDNSKNQVSLKLSSVTAADTAVYYCVKHDGGNYVGVMNYWGQGTLVTVSS
VL: EIVMTQSPDFQSVTPKEKVTITCRASQSISDYLHWYQQKPDQSPKLLIKYASQSISGVPSRFSGSGSGSDFTLTINSLEAEDAATYYCQNGHSFPPTFGQGTKLEIKR
notes: Human IgG1 heavy chain constant region and human Kappa light chain constant region; expressed in CHO-S cells
  binding result: no binding
